According to paper PMC3075868:

Assays:
[1] = biological target: HIV-1 NL4-3 CA N21C/A22C/W184A/M185A (disulfide-crosslinked pentamer) (HIV-1 NL4-3); test: crystal structure
[2] = biological target: HIV-1 NL4-3 CA P17C/R18L/T19C/W184A/M185A (disulfide-crosslinked pentamer) (HIV-1 NL4-3); test: crystal structure

Substance	stoichiometry N [1]	stoichiometry N [2]
HIV-1 NL4-3 CA N21C/A22C/W184A/M185A (disulfide-crosslinked pentamer) (natural protein)	5	
HIV-1 NL4-3 CA P17C/R18L/T19C/W184A/M185A (disulfide-crosslinked pentamer) (natural protein)		5
